For five molecules, binding result and Kd results are on record in PMC5934667 (Nucleic Acids Research, 2018).

Broadly, the Kd is the free concentration of one partner at which half of the binding sites on the other are occupied at equilibrium, for simple one-to-one binding.

Positions count from the first letter of the chain named. In names and notes the source's numbering stands.

For data set [1], the target named is T1, RAD51 KA (human, UniProt Q06609 1-339, K133A). Put plainly: EMSA. In general terms: In EMSA bound probe runs differently from free probe, usually more slowly.
The target of data set [2] is T2, RAD51 WT (human, UniProt Q06609 1-339). Kind of data set: EMSA.
The target in data set [3] is T3, RAD51 KR (human, UniProt Q06609 1-339, K133R). Kind of data set: EMSA.
The target of data set [4] is T3, RAD51 KR. Put plainly: stopped-flow Cy3 fluorescence.
The target in data set [5] is T1, RAD51 KA. Kind of data set: stopped-flow Cy3 fluorescence.
In data set [6] the target is RecA (bacterial, UniProt P0A7G6 1-353). Kind of data set: stopped-flow Cy3 fluorescence.
Data set [7] concerns the target T3, RAD51 KR. Put plainly: nuclease protection.
Data set [8] addresses T1, RAD51 KA. Kind of data set: nuclease protection.
The target of data set [9] is T2, RAD51 WT. Kind of data set: nuclease protection.
Data set [10] deals with the molecule itself. Put plainly: negative-stain EM, helical reconstruction.

Sequence of RecA (P0A7G6 whole entry): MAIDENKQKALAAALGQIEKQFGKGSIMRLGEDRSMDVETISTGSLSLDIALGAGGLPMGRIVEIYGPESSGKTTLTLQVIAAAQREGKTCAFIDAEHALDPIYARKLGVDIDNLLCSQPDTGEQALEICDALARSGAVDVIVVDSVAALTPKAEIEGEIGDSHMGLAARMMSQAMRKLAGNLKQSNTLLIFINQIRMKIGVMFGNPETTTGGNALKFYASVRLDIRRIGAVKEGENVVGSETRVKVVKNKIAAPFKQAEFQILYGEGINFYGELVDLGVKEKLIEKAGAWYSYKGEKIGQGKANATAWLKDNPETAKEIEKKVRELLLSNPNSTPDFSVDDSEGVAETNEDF

B1: 83-mer (ssDNA)
DNA: AAATGAACATAAAGTAAATAAGTATAAGGATAATACAAAATAAGTAAATGAATAAACATAGAAAATAAAGTAAAGGATATAAA
Turning to B1, the binding result in data set [1], in [2] and in data set [3] was “binds” throughout.

B2: 5'-Cy3-dT79 (ssDNA)
DNA: TTTTTTTTTTTTTTTTTTTTTTTTTTTTTTTTTTTTTTTTTTTTTTTTTTTTTTTTTTTTTTTTTTTTTTTTTTTTTTT
As for B2, the binding result in data set [4] and in [5] was “binds” in each case. The molecule also gave a Kd in data set [6] of less than 1100 nM.

B3: 61-mer (ssDNA)
DNA: GACGCTGCCGAATTCTACCAGTGCCTTGCTAGGACATCTTTGCCCACCTGCAGGTTCACCC
In the case of B3, the binding result in [7], in data set [8] and in data set [9] was “binds” each time.

B4: Human RAD51 K133R (natural protein)
chain: MAMQMQLEANADTSVEEESFGPQPISRLEQCGINANDVKKLEEAGFHTVEAVAYAPKKELINIKGISEAKADKILAEAAKLVPMGFTTATEFHQRRSEIIQITTGSKELDKLLQGGIETGSITEMFGEFRTGRTQICHTLAVTCQLPIDRGGGEGKAMYIDTEGTFRPERLLAVAERYGLSGSDVLDNVAYARAFNTDHQTQLLYQASAMMVESRYALLIVDSATALYRTDYSGRGELSARQMHLARFLRMLLRLADEFGVAVVITNQVVAQVDGAAMFAADPKKPIGGNIIAHASTTRLYLRKGRGETRICKIYDSPCLPEAEAMFAINADGVGDAKD
Take B4: the binding result in data set [10] is recorded as “binds”.

B5: Human RAD51 K133A (natural protein)
chain: B4 chain with R133A
On to B5, for which, in [10], the binding result is on record as “binds”.
